Laboratory results: patent publication US11274132B2, “Combined preparations of PKM2 modulators and HMGB1” (Ruprecht-Karls-Universität Heidelberg, priority 2015, dated 2022)

Target: PKM2 (Homo sapiens, UniProt P14618)
Experiment: Immunoprecipitation with 125I-labeled HMGB1 (PKM2 pull-down)
Assay type: binding
Parameters: endogenous in cells
Details: 125I-labeled HMGB1
Experimental: FIG. 6: Co-administration of HMGB1 and an activator (A left and right) or an inhibitor (B) of PMK2 has a synergistic cytotoxic effect, as determined in the crystal violet cytotoxicity assay (assays were performed in duplicate, * indicates p<0.05). (C) Immunoprecipitation with I125-labeled HMGB1 (PKM2 pull-down). HMGB1, like phosphotyrosine-peptides, binds close to the allosteric center of PKM2, leading to a competition in binding.

Chain of PKM2 (P14618 whole entry): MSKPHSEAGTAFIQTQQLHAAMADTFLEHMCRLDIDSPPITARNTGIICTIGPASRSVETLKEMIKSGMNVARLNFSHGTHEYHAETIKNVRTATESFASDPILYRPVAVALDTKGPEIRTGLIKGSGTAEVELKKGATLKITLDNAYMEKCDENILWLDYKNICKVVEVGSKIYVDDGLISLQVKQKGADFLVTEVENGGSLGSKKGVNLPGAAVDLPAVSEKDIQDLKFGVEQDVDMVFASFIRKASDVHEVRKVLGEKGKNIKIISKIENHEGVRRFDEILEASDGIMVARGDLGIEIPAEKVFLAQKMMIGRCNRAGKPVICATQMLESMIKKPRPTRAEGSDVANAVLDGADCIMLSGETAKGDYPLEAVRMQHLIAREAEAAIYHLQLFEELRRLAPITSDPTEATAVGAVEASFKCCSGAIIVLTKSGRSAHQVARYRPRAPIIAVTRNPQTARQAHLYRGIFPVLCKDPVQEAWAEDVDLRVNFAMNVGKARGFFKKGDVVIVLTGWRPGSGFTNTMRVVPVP

In the case of “HMGB1: recombinant human HMGB1 protein (Sigma-Aldrich); High Mobility Group Box 1 polypeptide, human, SEQ ID NO: 4”, the “binding to PKM2 in vivo (immunoprecipitating PKM2)” value is reported as “specific binding”.
